Measurements from article PMC7948472 (2020).
Each block holds one binder with its values, some of them ahead of it.

Target: T1, Histone H4 methylated peptide, SGRGK(me3)GGKGLGKGGAK (trimethyl-lysine K(me3) at K5)
T1 peptide: SGRGKGGKGLGKGGAK
Assay: SPR

Kd: 870 µM
B1: D6 Fab (Fab, V domains shown)
VH: QTVKESGGRLVTPGGTLTLTCTVSGFSLSRYAMSWVRQAPGEGLEYIGWINTYGSAYYASWVNGRFTISKTSTTMDLKMTSLTAADTATYFCVRWFADGGMDPWGPGTLVTVSS
VL: ALVLTQTPSPVSAAVGGAVSISCQSSQNIYKDNELSWYQQKPGQPPKLLIYKASTLASGVPSRFSGSGSGTQFTLTISGVQCDDAATYYCQGSRYNNGWDSGFGGGTEVVVK

Kd: 1600 µM
B2: C9 Fab (Fab, V domains shown)
VH: QSVEESGGRLVTPGTPLTLTCTVSGFSLTSYDMSWVRQAPGKGLEYIGFISSTTGGTYYASWAKGRFTISKTSTTVDLKITSPTTEDTATYFCAAGSWYNMWGPGTLVTVSS
VL: AQVLTQTPSSVSAAVGGTVTINCQASQSVYNNNWLGWYQQKPGQPPKLLIYKASTLASGVPSRFRGSGSGTQFTLTISDVQCDDAATYYCAGGYNGNIFPFGGGTEVVVT
